Source: publication PMC6776900, “PPM1G forms a PPP‐type phosphatase holoenzyme with B56δ that maintains adherens junction integrity” (EMBO Reports, 2019)

Experiments:
Test in all cases: BLI; Octet Red 96; His-tagged PPM1G or PPP2R1A immobilised on Ni-NTA biosensors, GST-B56δ proteins in solution (100–400 nm); 50 mM Tris pH 7.5, 300 mM NaCl, 0.01% NP-40 Igepal, 1 mM DTT; 25 °C
Conditions in all cases: both partners purified
GST-B56δ H282A = molecular target: T1, GST-B56δ H282A (human, UniProt Q14738 1-602, H282A)
T1 construct: B56δ (PPP2R5D), human cDNA, full length, point mutant; source: E. coli BL21 (DE3), purified (glutathione Sepharose)
T1 sequence (Q14738 whole entry H282A): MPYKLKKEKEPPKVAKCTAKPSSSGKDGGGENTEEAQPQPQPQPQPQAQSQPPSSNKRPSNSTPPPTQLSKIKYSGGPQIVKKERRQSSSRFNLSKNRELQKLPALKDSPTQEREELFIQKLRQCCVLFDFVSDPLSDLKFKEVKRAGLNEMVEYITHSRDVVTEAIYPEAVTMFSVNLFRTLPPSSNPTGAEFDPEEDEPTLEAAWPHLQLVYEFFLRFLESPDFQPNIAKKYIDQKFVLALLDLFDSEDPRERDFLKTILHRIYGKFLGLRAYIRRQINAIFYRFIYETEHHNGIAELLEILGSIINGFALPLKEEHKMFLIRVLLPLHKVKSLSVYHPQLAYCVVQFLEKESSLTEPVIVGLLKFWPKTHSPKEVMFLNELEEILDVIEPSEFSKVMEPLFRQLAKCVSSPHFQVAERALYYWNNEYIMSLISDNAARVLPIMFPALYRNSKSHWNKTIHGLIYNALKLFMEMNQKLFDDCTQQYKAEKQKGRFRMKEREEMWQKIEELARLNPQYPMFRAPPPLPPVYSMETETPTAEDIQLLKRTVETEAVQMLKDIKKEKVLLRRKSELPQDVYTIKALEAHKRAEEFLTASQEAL

GST-B56δ = molecular target: T2, GST-B56δ (human, UniProt Q14738 1-602)
T2 construct: PP2A regulatory subunit B56δ (PPP2R5D), human cDNA, full-length protein; also called GST-B56δ wild type (WT); GST-tagged B56δ; source: E. coli BL21 (DE3), purified (glutathione Sepharose)
T2 sequence (Q14738 whole entry, stated change not applied): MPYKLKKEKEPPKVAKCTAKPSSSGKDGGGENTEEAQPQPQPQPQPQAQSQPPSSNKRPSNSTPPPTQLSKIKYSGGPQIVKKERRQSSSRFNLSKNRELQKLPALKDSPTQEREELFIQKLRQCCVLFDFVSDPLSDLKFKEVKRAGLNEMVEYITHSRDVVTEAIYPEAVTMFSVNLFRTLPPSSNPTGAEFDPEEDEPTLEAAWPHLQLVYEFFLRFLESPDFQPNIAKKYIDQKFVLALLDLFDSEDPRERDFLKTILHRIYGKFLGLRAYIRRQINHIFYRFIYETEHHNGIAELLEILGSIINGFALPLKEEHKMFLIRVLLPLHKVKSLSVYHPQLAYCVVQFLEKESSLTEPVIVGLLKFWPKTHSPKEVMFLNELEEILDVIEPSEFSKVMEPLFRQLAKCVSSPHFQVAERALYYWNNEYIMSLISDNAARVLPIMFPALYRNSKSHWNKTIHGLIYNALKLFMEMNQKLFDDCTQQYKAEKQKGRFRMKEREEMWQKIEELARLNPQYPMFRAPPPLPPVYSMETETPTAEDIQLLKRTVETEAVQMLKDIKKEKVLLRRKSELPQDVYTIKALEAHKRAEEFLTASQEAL

GST-B56δ L183A = molecular target: T3, GST-B56δ L183A (human, UniProt Q14738 1-602, L183A)
T3 construct: B56δ (PPP2R5D), human cDNA, full length, point mutant; source: E. coli BL21 (DE3), purified (glutathione Sepharose)
T3 sequence (Q14738 whole entry L183A): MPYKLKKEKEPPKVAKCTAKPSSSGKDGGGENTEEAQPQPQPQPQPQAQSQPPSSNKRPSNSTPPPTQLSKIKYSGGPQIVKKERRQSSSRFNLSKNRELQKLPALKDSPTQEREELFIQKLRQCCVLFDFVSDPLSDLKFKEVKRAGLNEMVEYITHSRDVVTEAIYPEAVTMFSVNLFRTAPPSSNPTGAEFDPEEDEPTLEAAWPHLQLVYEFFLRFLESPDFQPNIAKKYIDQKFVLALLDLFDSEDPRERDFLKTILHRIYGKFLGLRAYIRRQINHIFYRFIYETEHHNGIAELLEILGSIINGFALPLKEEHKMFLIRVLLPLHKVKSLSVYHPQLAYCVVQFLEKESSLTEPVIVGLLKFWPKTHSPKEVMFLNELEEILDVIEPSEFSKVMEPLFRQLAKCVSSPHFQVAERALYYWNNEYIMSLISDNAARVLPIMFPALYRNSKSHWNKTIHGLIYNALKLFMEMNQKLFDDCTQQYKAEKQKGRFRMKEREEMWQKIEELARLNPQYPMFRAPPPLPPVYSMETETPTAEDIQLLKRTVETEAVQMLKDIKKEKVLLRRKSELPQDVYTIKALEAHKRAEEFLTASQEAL

Kd (GST-B56δ H282A): 4.38 nM | Kd (GST-B56δ): 5.04 nM | Kd (GST-B56δ L183A): 5.59 nM
B1: 6xHis-tagged PPM1G (enzyme, human, UniProt O15355 1-546, looked up)
chain: MGAYLSQPNTVKCSGDGVGAPRLPLPYGFSAMQGWRVSMEDAHNCIPELDSETAMFSVYDGHGGEEVALYCAKYLPDIIKDQKAYKEGKLQKALEDAFLAIDAKLTTEEVIKELAQIAGRPTEDEDEKEKVADEDDVDNEEAALLHEEATMTIEELLTRYGQNCHKGPPHSKSGGGTGEEPGSQGLNGEAGPEDSTRETPSQENGPTAKAYTGFSSNSERGTEAGQVGEPGIPTGEAGPSCSSASDKLPRVAKSKFFEDSEDESDEAEEEEEDSEECSEEEDGYSSEEAENEEDEDDTEEAEEDDEEEEEEMMVPGMEGKEEPGSDSGTTAVVALIRGKQLIVANAGDSRCVVSEAGKALDMSYDHKPEDEVELARIKNAGGKVTMDGRVNGGLNLSRAIGDHFYKRNKNLPPEEQMISALPDIKVLTLTDDHEFMVIACDGIWNVMSSQEVVDFIQSKISQRDENGELRLLSSIVEELLDQCLAPDTSGDGTGCDNMTCIIICFKPRNTAELQPESGKRKLEEVLSTEGAEENGNSDKKKKAKRD
notes: PPM1G (PP2Cγ); The cloning into a His-tag vector is not described in the methods; also called His-PPM1G; recombinant PPM1G; source: recombinant
